The experiment concerns the target Staphylococcus aureus FakA (S. aureus).

“Staphylococcus aureus FakB1 (wild type), palmitate-loaded (from UniProt X5EH37 1-288) (natural protein)”: the apparent KM of FakB1 in the FA kinase assay with 0.2 μM FakA was found to be 0.13 µM.
With “Staphylococcus aureus FakB1(A121I), palmitate-loaded (from UniProt X5EH37 1-288) (natural protein)”, the apparent KM of FakB1(A121I) in the FA kinase assay with 0.2 μM FakA is 0.1 µM.
Take “Staphylococcus aureus FakB1(A158L), myristate-loaded (from UniProt X5EH37 1-288) (natural protein)”: the apparent KM of FakB1(A158L) in the FA kinase assay with 0.2 μM FakA was 0.13 µM.

Values taken from PMC8892158.
